Laboratory results from paper PMC10710473, “The DNA glycosylase NEIL2 is protective during SARS-CoV-2 infection”.

Assays:
NEIL2 (rNEIL2) [1] = target: T1, NEIL2 (rNEIL2) (UniProt Q969S2 1-332); assay: EMSA; details: protein: recombinant; tags: C-terminal 6xHis; chain copies: 12; label: 32P end label; natively folded, minor misfolded band
T1 sequence: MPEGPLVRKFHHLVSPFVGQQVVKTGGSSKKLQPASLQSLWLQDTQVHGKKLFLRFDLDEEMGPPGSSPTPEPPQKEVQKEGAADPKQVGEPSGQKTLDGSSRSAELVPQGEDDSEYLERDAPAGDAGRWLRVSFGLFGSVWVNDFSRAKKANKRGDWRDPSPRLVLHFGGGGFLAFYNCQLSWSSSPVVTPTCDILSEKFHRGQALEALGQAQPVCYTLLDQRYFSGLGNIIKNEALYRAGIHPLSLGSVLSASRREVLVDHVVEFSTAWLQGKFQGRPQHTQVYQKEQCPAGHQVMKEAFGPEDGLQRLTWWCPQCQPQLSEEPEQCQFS

NEIL2 (rNEIL2) [2] = target: T1, NEIL2 (rNEIL2); assay: EMSA; 1 nM RNA, no yeast tRNA; Hill 2.428; details: protein: recombinant; tags: C-terminal 6xHis; label: 32P end label
NEIL2 (rNEIL2) [3] = target: T1, NEIL2 (rNEIL2); assay: EMSA; 1 nM RNA, compact band at 75 nM NEIL2; Kd not measurable (aggregates); details: protein: recombinant; tags: C-terminal 6xHis; chain copies: 12; label: 32P end label; folded; partly aggregates

B1: CoV-2 5'-UTR RNA (full length, 297 nt) (structured_RNA)
RNA: AUUAAAGGUUUAUACCUUCCCAGGUAACAAACCAACCAACUUUCGAUCUCUUGUAGAUCUGUUCUCUAAACGAACUUUAAAAUCUGUGUGGCUGUCACUCGGCUGCAUGCUUAGUGCACUCACGCAGUAUAAUUAAUAACUAAUUACUGUCGUUGACAGGACACGAGUAACUCGUCUAUCUUCUGCAGGCUGCUUACGGUUUCGUCCGUGUUGCAGCCGAUCAUCAGCACAUCUAGGUUUUGUCCGGGUGUGACCGAAAGGUAAGAUGGAGAGCCUUGUCCCUGGUUUCAACGAGAA
For B1, the Kd (NEIL2 (rNEIL2) [1]) was 44.2 nM.

Binder UCCCCAUGUGAUUUUAAUAGCUUCUUAGGAGAAUGACA (mixed, DNA bases may be present) [CoV-2 3'-UTR ZnF-site (38-mer)] has a Kd (NEIL2 (rNEIL2) [2]) of 77.2 nM.

B2: CoV-2 3'-UTR RNA (full length, 200 nt) (structured_RNA)
RNA: CAAUCUUUAAUCAGUGUGUAACAUUAGGGAGGACUUGAAAGAGCCACCACAUUUUCACCGAGGCCACGCGGAGUACGAUCGAGUGUACAGUGAACAAUGCUAGGGAGAGCUGCCUAUAUGGAAGAGCCCUAAUGUGUAAAAUUAAUUUUAGUAGUGCUAUCCCCAUGUGAUUUUAAUAGCUUCUUAGGAGAAUGACAAAA
B2: binds (NEIL2 (rNEIL2) [3]).
